From patent EP0808367B1 (MILLENNIUM PHARMACEUTICALS, INC., dated 2007) come the findings set out here.

Experiment [1] has as its target T1, human α4β7 integrin (human, UniProt P13612 34-1032; P26010 20-798).
T1 construct: whole, on cells; also called α4β7 on RPMI 8866 cells; α4β7 on HuT 78 cells
Description: RPMI 8866 adhesion to chimera on protein A plate; chimera 1:2; preincubated with control anti-VCAM-1 MAb 2G7 (-). The settings on record: scale: raw fluorescence.

Experiment [2] deals with T1, human α4β7 integrin. Description: RPMI 8866 adhesion to chimera on protein A plate; chimera 1:4; preincubated with control anti-VCAM-1 MAb 2G7 (-). The settings on record: scale: raw fluorescence.
In experiment [3] the target is T1, human α4β7 integrin. Description: RPMI 8866 adhesion to chimera on protein A plate; chimera 1:8; preincubated with control anti-VCAM-1 MAb 2G7 (-). The settings on record: scale: raw fluorescence.
In experiment [4] the target is T1, human α4β7 integrin. Description: RPMI 8866 adhesion to chimera on protein A plate; chimera 1:16; preincubated with control anti-VCAM-1 MAb 2G7 (-). The settings on record: scale: raw fluorescence.
The target in experiment [5] is T1, human α4β7 integrin. Description: RPMI 8866 adhesion to chimera on protein A plate; chimera 1:32; preincubated with control anti-VCAM-1 MAb 2G7 (-). The settings on record: scale: raw fluorescence.
Experiment [6] deals with T1, human α4β7 integrin. Description: RPMI 8866 adhesion to chimera on protein A plate; chimera neat; preincubated with control anti-VCAM-1 MAb 2G7 (-). The settings on record: scale: raw fluorescence.
The target in experiment [7] is T1, human α4β7 integrin. Description: RPMI 8866 adhesion to chimera on protein A plate; chimera 1:2; preincubated with blocking anti-human MAdCAM MAb 10G3 (+). The settings on record: scale: raw fluorescence.
Experiment [8] concerns the target T1, human α4β7 integrin. Description: RPMI 8866 adhesion to chimera on protein A plate; chimera 1:4; preincubated with blocking anti-human MAdCAM MAb 10G3 (+). The settings on record: scale: raw fluorescence.
Experiment [9] addresses T1, human α4β7 integrin. Description: RPMI 8866 adhesion to chimera on protein A plate; chimera 1:8; preincubated with blocking anti-human MAdCAM MAb 10G3 (+). The settings on record: scale: raw fluorescence.
Experiment [10] has as its target T1, human α4β7 integrin. Description: RPMI 8866 adhesion to chimera on protein A plate; chimera 1:16; preincubated with blocking anti-human MAdCAM MAb 10G3 (+). The settings on record: scale: raw fluorescence.
The target in experiment [11] is T1, human α4β7 integrin. Description: RPMI 8866 adhesion to chimera on protein A plate; chimera 1:32; preincubated with blocking anti-human MAdCAM MAb 10G3 (+). The settings on record: scale: raw fluorescence.
The target in experiment [12] is T1, human α4β7 integrin. Description: RPMI 8866 adhesion to chimera on protein A plate; chimera neat; preincubated with blocking anti-human MAdCAM MAb 10G3 (+). The settings on record: scale: raw fluorescence.
Experiment [13] deals with T1, human α4β7 integrin. Description: RPMI 8866 adhesion to chimera on protein A plate; supernatant 1:2; preincubated with control anti-VCAM-1 MAb 2G7 (-). The settings on record: scale: raw fluorescence.
In experiment [14] the target is T1, human α4β7 integrin. Description: RPMI 8866 adhesion to chimera on protein A plate; supernatant 1:4; preincubated with control anti-VCAM-1 MAb 2G7 (-). The settings on record: scale: raw fluorescence.
Experiment [15] concerns the target T1, human α4β7 integrin. Description: RPMI 8866 adhesion to chimera on protein A plate; supernatant 1:8; preincubated with control anti-VCAM-1 MAb 2G7 (-). The settings on record: scale: raw fluorescence.
Experiment [16] has as its target T1, human α4β7 integrin. Description: RPMI 8866 adhesion to chimera on protein A plate; supernatant 1:16; preincubated with control anti-VCAM-1 MAb 2G7 (-). The settings on record: scale: raw fluorescence.
Experiment [17] deals with T1, human α4β7 integrin. Description: RPMI 8866 adhesion to chimera on protein A plate; supernatant 1:32; preincubated with control anti-VCAM-1 MAb 2G7 (-). The settings on record: scale: raw fluorescence.
Experiment [18] concerns the target T1, human α4β7 integrin. Description: RPMI 8866 adhesion to chimera on protein A plate; supernatant neat; preincubated with control anti-VCAM-1 MAb 2G7 (-). The settings on record: scale: raw fluorescence.
Experiment [19] deals with T1, human α4β7 integrin. Description: RPMI 8866 adhesion to chimera on protein A plate; supernatant 1:2; preincubated with blocking anti-human MAdCAM MAb 10G3 (+). The settings on record: scale: raw fluorescence.
Experiment [20] deals with T1, human α4β7 integrin. Description: RPMI 8866 adhesion to chimera on protein A plate; supernatant 1:4; preincubated with blocking anti-human MAdCAM MAb 10G3 (+). The settings on record: scale: raw fluorescence.
Experiment [21] has as its target T1, human α4β7 integrin. Description: RPMI 8866 adhesion to chimera on protein A plate; supernatant 1:8; preincubated with blocking anti-human MAdCAM MAb 10G3 (+). The settings on record: scale: raw fluorescence.
Experiment [22] has as its target T1, human α4β7 integrin. Description: RPMI 8866 adhesion to chimera on protein A plate; supernatant 1:16; preincubated with blocking anti-human MAdCAM MAb 10G3 (+). The settings on record: scale: raw fluorescence.
In experiment [23] the target is T1, human α4β7 integrin. Description: RPMI 8866 adhesion to chimera on protein A plate; supernatant 1:32; preincubated with blocking anti-human MAdCAM MAb 10G3 (+). The settings on record: scale: raw fluorescence.
Experiment [24] addresses T1, human α4β7 integrin. Description: RPMI 8866 adhesion to chimera on protein A plate; supernatant neat; preincubated with blocking anti-human MAdCAM MAb 10G3 (+). The settings on record: scale: raw fluorescence.
For experiment [25], the target named is T1, human α4β7 integrin. Description: cell adhesion assay, CHO/P transfectants.
Another experiment has as its target T2, human α4β1 integrin (human, UniProt P13612 34-1032; P05556 21-798).
T2 construct: whole, on cells; Carried by Jurkat and Ramos cells, which express α4β1 and not α4β7; also called α4β1 on Jurkat cells; α4β1 on Ramos cells
Description: Figure 4B: Jurkat adhesion to CHO/P transfectants.

In experiment [26] the target is T1, human α4β7 integrin. Description: RPMI 8866 adhesion to CHO/P transfectants, 4°C.

T1 sequence (P13612 34-1032, chain 1 of 2): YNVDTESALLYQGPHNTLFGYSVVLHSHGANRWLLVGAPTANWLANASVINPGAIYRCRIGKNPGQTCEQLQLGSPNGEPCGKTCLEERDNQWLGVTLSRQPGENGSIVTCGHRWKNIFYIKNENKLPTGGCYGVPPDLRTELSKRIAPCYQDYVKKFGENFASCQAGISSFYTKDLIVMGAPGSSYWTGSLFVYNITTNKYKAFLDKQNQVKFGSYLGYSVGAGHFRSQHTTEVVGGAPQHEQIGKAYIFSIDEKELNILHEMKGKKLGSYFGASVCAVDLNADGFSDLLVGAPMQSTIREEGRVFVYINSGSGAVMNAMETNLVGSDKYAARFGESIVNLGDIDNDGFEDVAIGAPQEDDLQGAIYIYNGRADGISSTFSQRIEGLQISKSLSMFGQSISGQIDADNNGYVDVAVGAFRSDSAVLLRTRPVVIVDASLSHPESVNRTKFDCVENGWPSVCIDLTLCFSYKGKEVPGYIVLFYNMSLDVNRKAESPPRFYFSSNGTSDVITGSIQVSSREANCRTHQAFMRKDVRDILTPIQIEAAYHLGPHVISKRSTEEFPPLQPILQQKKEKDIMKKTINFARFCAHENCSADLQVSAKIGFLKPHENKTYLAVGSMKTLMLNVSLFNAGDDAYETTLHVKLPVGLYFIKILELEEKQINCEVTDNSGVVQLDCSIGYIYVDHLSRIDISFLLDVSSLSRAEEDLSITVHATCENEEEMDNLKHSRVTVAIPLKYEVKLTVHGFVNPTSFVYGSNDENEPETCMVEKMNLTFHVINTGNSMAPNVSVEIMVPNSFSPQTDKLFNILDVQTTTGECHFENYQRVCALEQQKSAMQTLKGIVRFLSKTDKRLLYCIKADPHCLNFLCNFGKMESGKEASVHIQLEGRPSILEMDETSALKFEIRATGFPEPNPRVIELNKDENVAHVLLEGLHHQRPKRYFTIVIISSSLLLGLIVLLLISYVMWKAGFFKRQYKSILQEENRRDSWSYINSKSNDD
T1 sequence (P26010 20-798, chain 2 of 2): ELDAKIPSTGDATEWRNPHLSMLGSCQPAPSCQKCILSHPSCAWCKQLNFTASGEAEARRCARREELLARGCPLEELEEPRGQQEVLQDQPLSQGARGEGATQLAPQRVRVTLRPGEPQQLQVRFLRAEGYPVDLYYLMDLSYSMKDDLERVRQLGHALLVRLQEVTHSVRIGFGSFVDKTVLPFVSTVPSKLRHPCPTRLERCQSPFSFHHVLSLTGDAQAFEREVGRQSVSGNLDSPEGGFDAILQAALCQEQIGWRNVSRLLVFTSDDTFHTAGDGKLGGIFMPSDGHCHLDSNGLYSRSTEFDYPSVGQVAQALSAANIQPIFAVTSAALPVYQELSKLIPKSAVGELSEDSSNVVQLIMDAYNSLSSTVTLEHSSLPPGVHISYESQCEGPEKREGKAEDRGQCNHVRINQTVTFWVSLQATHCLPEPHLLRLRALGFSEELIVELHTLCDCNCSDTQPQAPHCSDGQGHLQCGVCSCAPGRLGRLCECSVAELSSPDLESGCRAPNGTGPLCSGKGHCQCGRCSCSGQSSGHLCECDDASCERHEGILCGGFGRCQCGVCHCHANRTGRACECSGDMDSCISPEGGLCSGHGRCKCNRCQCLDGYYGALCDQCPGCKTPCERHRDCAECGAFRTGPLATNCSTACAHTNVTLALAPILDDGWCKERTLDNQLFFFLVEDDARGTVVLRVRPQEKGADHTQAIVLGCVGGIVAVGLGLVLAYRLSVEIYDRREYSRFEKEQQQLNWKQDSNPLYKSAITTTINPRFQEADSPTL
T2 sequence (P13612 34-1032, chain 1 of 2): as the sequence (P13612 34-1032, chain 1 of 2) above
T2 sequence (P05556 21-798, chain 2 of 2): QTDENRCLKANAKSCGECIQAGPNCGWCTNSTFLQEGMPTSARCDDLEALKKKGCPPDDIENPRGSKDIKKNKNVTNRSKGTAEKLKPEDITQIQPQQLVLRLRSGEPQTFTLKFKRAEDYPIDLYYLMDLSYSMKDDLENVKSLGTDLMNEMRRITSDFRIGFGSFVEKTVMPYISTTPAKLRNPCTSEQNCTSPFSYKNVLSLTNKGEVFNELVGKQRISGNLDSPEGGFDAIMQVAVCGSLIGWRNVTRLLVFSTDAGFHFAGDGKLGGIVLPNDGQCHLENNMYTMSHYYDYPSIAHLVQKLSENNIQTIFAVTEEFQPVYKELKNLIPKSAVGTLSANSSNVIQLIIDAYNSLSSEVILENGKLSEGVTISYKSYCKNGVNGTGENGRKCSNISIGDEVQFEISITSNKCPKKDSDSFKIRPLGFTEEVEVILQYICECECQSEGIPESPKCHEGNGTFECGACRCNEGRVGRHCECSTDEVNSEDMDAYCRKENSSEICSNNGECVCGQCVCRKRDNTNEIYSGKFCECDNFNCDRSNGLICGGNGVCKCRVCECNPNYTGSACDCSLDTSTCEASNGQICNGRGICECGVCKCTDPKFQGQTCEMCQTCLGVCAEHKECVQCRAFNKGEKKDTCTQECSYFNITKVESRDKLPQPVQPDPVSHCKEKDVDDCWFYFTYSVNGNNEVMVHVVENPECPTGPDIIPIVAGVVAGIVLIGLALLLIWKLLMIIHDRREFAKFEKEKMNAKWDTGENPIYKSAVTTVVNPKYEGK

Consider “human MAdCAM-Ig chimera, construct HuMAdIg21 (entire extracellular domain of human MAdCAM-1 fused to Fc-mutated human IgG1 constant region) (from UniProt P01857 1-330) (Fc fusion)”, for which the fluorescence of bound RPMI 8866 cells amounted to 196000 with human α4β7 integrin [1]; 196000 in the experiment with human α4β7 integrin [2]; 18600 with human α4β7 integrin [3]; 4250 with human α4β7 integrin [4]; 3560 with human α4β7 integrin [5]; 196000 in the experiment with human α4β7 integrin [6]. In addition, the fluorescence of bound RPMI 8866 cells with human α4β7 integrin [7] was found to be 3090; in the experiment with human α4β7 integrin [8] it was 1750; in the experiment with human α4β7 integrin [9], 2200; with human α4β7 integrin [10], 482; with human α4β7 integrin [11], 564; with human α4β7 integrin [12], 3860.

In the case of “human MAdCAM-Ig chimera in the supernatant of a cloned NSO line, Sample D (Fc fusion)”, the fluorescence of bound RPMI 8866 cells with human α4β7 integrin [13] came out at 30800; in the experiment with human α4β7 integrin [14], 46900; in the experiment with human α4β7 integrin [15], 16300; in the experiment with human α4β7 integrin [16], 5470; in the experiment with human α4β7 integrin [17] it was 2660; with human α4β7 integrin [18] it was 196000. Also, the fluorescence of bound RPMI 8866 cells with human α4β7 integrin [19] turned out to be 6790; in the experiment with human α4β7 integrin [20] it was 6020; with human α4β7 integrin [21] it was 4510; in the experiment with human α4β7 integrin [22], 6550; with human α4β7 integrin [23], 5120; with human α4β7 integrin [24] it was 7350.

For the molecule “human MAdCAM-Ig chimera in the supernatant of a cloned NSO line, Sample C (Fc fusion)”, the fluorescence of bound RPMI 8866 cells with human α4β7 integrin [13] worked out at 196000; with human α4β7 integrin [14], 35500; with human α4β7 integrin [15] it was 9570; with human α4β7 integrin [16], 21800; with human α4β7 integrin [17], 1930; in the experiment with human α4β7 integrin [18], 196000. Also, the fluorescence of bound RPMI 8866 cells with human α4β7 integrin [19] came out at 4090; with human α4β7 integrin [20], 3920; with human α4β7 integrin [21], 3490; in the experiment with human α4β7 integrin [22] it was 2440; with human α4β7 integrin [23], 2570; in the experiment with human α4β7 integrin [24], 4570.

In the case of “human MAdCAM-Ig chimera in the supernatant of a cloned NSO line, Sample B (Fc fusion)”, the fluorescence of bound RPMI 8866 cells with human α4β7 integrin [13] came to 196000; in the experiment with human α4β7 integrin [14], 196000; in the experiment with human α4β7 integrin [15], 196000; with human α4β7 integrin [16], 52100; with human α4β7 integrin [17] it was 2930; in the experiment with human α4β7 integrin [18], 196000. Moreover, the fluorescence of bound RPMI 8866 cells with human α4β7 integrin [19] came out at 3630; with human α4β7 integrin [20] it was 3270; with human α4β7 integrin [21] it was 2980; with human α4β7 integrin [22] it was 1650; with human α4β7 integrin [23] it was 1520; with human α4β7 integrin [24], 6530.

B1: seven domain human VCAM-1 (receptor, UniProt P19320 25-739, looked up)
chain: FKIETTPESRYLAQIGDSVSLTCSTTGCESPFFSWRTQIDSPLNGKVTNEGTTSTLTMNPVSFGNEHSYLCTATCESRKLEKGIQVEIYSFPKDPEIHLSGPLEAGKPITVKCSVADVYPFDRLEIDLLKGDHLMKSQEFLEDADRKSLETKSLEVTFTPVIEDIGKVLVCRAKLHIDEMDSVPTVRQAVKELQVYISPKNTVISVNPSTKLQEGGSVTMTCSSEGLPAPEIFWSKKLDNGNLQHLSGNATLTLIAMRMEDSGIYVCEGVNLIGKNRKEVELIVQEKPFTVEISPGPRIAAQIGDSVMLTCSVMGCESPSFSWRTQIDSPLSGKVRSEGTNSTLTLSPVSFENEHSYLCTVTCGHKKLEKGIQVELYSFPRDPEIEMSGGLVNGSSVTVSCKVPSVYPLDRLEIELLKGETILENIEFLEDTDMKSLENKSLEMTFIPTIEDTGKALVCQAKLHIDDMEFEPKQRQSTQTLYVNVAPRDTTVLVSPSSILEEGSSVNMTCLSQGFPAPKILWSRQLPNGELQPLSENATLTLISTKMEDSGVYLCEGINQAGRSRKEVELIIQVTPKDIKLTAFPSESVKEGDTVIISCTCGNVPETWIILKKKAETGDTVLKSIDGAYTIRKAQLKDAGVYECESKNKVGSQLRSLTLDVQGRENNKDYFSPELLVLYFASSLIIPAIGMIIYFARKANMKGSYSLVEAQKSKV
notes: whole, on cells; Expressed on transiently transfected CHO/P cells; also called pCD3VCAM
Consider B1, for which the binding result with human α4β7 integrin [25] is “no binding”; with human α4β1 integrin, “binds”.

B2: murine MAdCAM-1 (receptor, UniProt Q61826 22-405, looked up)
chain: QSFQVNPPESEVAVAMGTSLQITCSMSCDEGVARVHWRGLDTSLGSVQTLPGSSILSVRGMLSDTGTPVCVGSCGSRSFQHSVKILVYAFPDQLVVSPEFLVPGQDQVVSCTAHNIWPADPNSLSFALLLGEQRLEGAQALEPEQEEEIQEAEGTPLFRMTQRWRLPSLGTPAPPALHCQVTMQLPKLVLTHRKEIPVLQSQTSPKPPNTTSAEPYILTSSSTAEAVSTGLNITTLPSAPPYPKLSPRTLSSEGPCRPKIHQDLEAGWELLCEASCGPGVTVRWTLAPGDLATYHKREAGAQAWLSVLPPGPMVEGWFQCRQDPGGEVTNLYVPGQVTPNSSSTVVLWIGSLVLGLLALVFLAYRLWKCYRPGPRPDTSSCTHL
notes: whole, on cells; Expressed on transiently transfected CHO/P cells; also called pCDMAD-7
As for B2, the values for the binding result in the experiment with human α4β7 integrin [26] and with human α4β1 integrin were “binds” and “no binding”, respectively.
